Data as given in patent US20210147507A1, “METHODS TO AUGMENT OR ALTER SIGNAL TRANSDUCTION” (Bellicum Pharmaceuticals, Inc., priority 2017, published 2021).

Test system: chimeric Caspase-9 polypeptide
Assay: Caspase-9 mutant classes and basal activity (Table 5)
Format: cell-based
Conditions: Caspase-9 mutant class; for IC50: ligand IC50 compared with unmodified chimeric Caspase-9
Excerpt: Even though homo-dimerization of wild-type initiator Caspase-9 is energetically unfavorable, making them mostly monomers in solution [14-16], the low-level inherent basal activity of unprocessed Caspase-9 [15, 17] is enhanced in the presence of the Apaf-1-based “apoptosome”, its natural allosteric regulator [6]. Moreover, supra-physiological expression levels and/or co-localization could lead to proximity-driven dimerization, further enhancing basal activation. The modified cells of the present application may comprise nucleic acids coding for a chimeric Caspase-9 polypeptide having lower basal signaling activity. Polynucleotides comprising Caspase-9 mutants with lower basal signaling may be expressed in the modified cells used for cell therapy herein. In these examples, the modified cells may include a safety switch, comprising a polynucleotide encoding a lower basal signaling chimeric Caspase-9 polypeptide. In the event of an adverse event following administration of the modified cells comprising the chimeric signaling polypeptides or chimeric antigen receptors herein, Caspase-9 activity may be induced by administering the dimerizer to the patient, thus inducing apoptosis and clearance of some, or all of the modified cells. In some examples, the amount of dimerizer administered may be determined as an amount designed to remove the highest amount, at least 80% or 90% of the modified cells. In other examples, the amount of dimerizer administered may be determined as an amount designed to remove only a portion of the modified cells, in order to alleviate negative symptoms or conditions, while leaving a sufficient amount of therapeutic modified cells in the patient, in order to continue therapy. Methods for using chimeric Caspase-9 polypeptides to induce apoptosis are discussed in PCT Application Number PCT/US2011/037381 by Malcolm K. Brenner et al., titled Methods for Inducing Selective Apoptosis, filed May 20, 2011, and in U.S. patent application Ser. No. 13/112,739 by Malcolm K. Brenner et al., titled Methods for Inducing Selective Apoptosis, filed May 20, 2011, issued Jul. 28, 2015 as U.S. Pat. No. 9,089,520. Chimeric caspase polypeptides having modified basal activity are discussed in PCT Application Serial Number PCT/US2014/022004 by David Spencer et al., titled Modified Caspase Polypeptides and Uses Thereof, filed Mar. 7, 2014, published Oct. 9, 2014 as WO2014/164348, and in U.S. patent application Ser. No. 13/792,135 by David Spencer et al., titled Modified Caspase Polypeptides and Uses Thereof, filed Mar. 7, 2014; and in U.S. patent application Ser. No. 14/640,553 by Spencer et al., filed Mar. 6, 2015. Methods for inducing partial apoptosis of the therapeutic modified cells are discussed in PCT Application Number PCT/US14/040964 by Kevin Slawin et al., titled Methods for Inducing Partial Apoptosis Using Caspase Polypeptides, filed Jun. 4, 2014, published Dec. 11, 2014 as WO2014/197638, and in U.S. patent application Ser. No. 14/296,404 by Kevin Slawin et al., titled Methods for Inducing Partial Apoptosis Using Caspase Polypeptides, filed Jun. 4, 2014. These patent applications and publications are all incorporated by reference herein in their entireties.

[1] = basal (ligand-independent) signaling compared with unmodified chimeric Caspase-9

Sequence of chimeric Caspase-9 polypeptide (P62942 2-108 F37V limits assumed): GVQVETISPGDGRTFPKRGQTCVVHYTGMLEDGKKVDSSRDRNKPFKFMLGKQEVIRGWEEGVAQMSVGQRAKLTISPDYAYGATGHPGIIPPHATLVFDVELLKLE

Molecule | Basal Activity (mutants marked * = predicted) | Basal Activity [1] | IC50
N405Q-S144Aco (protein, UniProt P55211 1-416, looked up, variant N405Q S144A, codon-optimized; in iC9 construct) MDEADRRLLRRCRLRLVEELQVDQLWDALLSRELFRPHMIEDIQRAGSGSRRDQARQLIIDLETRGSQALPLFISCLEDTGQDMLASFLRTNRQAAKLSKPTLENLTPVVLRPEIRKPEVLRPETPRPVDIGSGGFGDVGALEALRGNADLAYILSMEPCGHCLIINNVNFCRESGLRTRTGSNIDCEKLRRRFSSLHFMVEVKGDLTAKKMVLALLELAQQDHGALDCCVVVILSHGCQASHLQFPGAVYGTDGCPVSVEKIVNIFNGTSCPSLGGKPKLFFIQACGGEQKDHGFEVASTSPEDESPGSNPEPDATPFQEGLRTFDQLDAISSLPTPSDIFVSYSTFPGFVSWRDPKSGSWYVETLDDIFEQWAHSEDLQSLLLRVANAVSVKGIYKQMPGCFQFLRKKLFFKTS | Decreased |  | 
N405Q-T317Sco (protein, UniProt P55211 1-416, looked up, variant N405Q T317S, codon-optimized; in iC9 construct) MDEADRRLLRRCRLRLVEELQVDQLWDALLSRELFRPHMIEDIQRAGSGSRRDQARQLIIDLETRGSQALPLFISCLEDTGQDMLASFLRTNRQAAKLSKPTLENLTPVVLRPEIRKPEVLRPETPRPVDIGSGGFGDVGALESLRGNADLAYILSMEPCGHCLIINNVNFCRESGLRTRTGSNIDCEKLRRRFSSLHFMVEVKGDLTAKKMVLALLELAQQDHGALDCCVVVILSHGCQASHLQFPGAVYGTDGCPVSVEKIVNIFNGTSCPSLGGKPKLFFIQACGGEQKDHGFEVASTSPEDESPGSNPEPDASPFQEGLRTFDQLDAISSLPTPSDIFVSYSTFPGFVSWRDPKSGSWYVETLDDIFEQWAHSEDLQSLLLRVANAVSVKGIYKQMPGCFQFLRKKLFFKTS | Decreased |  | 
D330A-S183A (protein) GFGDVGALESLRGNADLAYILSMEPCGHCLIINNVNFCRESGLRTRTGANIDCEKLRRRFSSLHFMVEVKGDLTAKKMVLALLELARQDHGALDCCVVVILSHGCQASHLQFPGAVYGTDGCPVSVEKIVNIFNGTSCPSLGGKPKLFFIQACGGEQKDHGFEVASTSPEDESPGSNPEPDATPFQEGLRTFDQLAAISSLPTPSDIFVSYSTFPGFVSWRDPKSGSWYVETLDDIFEQWAHSEDLQSLLLRVANAVSVKGIYKQMPGCFNFLRKKLFFKTSASRA |  | Decreased | higher IC50
F406A (protein) GFGDVGALESLRGNADLAYILSMEPCGHCLIINNVNFCRESGLRTRTGSNIDCEKLRRRFSSLHFMVEVKGDLTAKKMVLALLELARQDHGALDCCVVVILSHGCQASHLQFPGAVYGTDGCPVSVEKIVNIFNGTSCPSLGGKPKLFFIQACGGEQKDHGFEVASTSPEDESPGSNPEPDATPFQEGLRTFDQLDAISSLPTPSDIFVSYSTFPGFVSWRDPKSGSWYVETLDDIFEQWAHSEDLQSLLLRVANAVSVKGIYKQMPGCFNALRKKLFFKTSASRA |  | Decreased | higher IC50
N405Q-T317S (protein) GFGDVGALESLRGNADLAYILSMEPCGHCLIINNVNFCRESGLRTRTGSNIDCEKLRRRFSSLHFMVEVKGDLTAKKMVLALLELARQDHGALDCCVVVILSHGCQASHLQFPGAVYGTDGCPVSVEKIVNIFNGTSCPSLGGKPKLFFIQACGGEQKDHGFEVASTSPEDESPGSNPEPDASPFQEGLRTFDQLDAISSLPTPSDIFVSYSTFPGFVSWRDPKSGSWYVETLDDIFEQWAHSEDLQSLLLRVANAVSVKGIYKQMPGCFQFLRKKLFFKTSASRA |  | Decreased | higher IC50
N405Q-S144D (protein) GFGDVGALEDLRGNADLAYILSMEPCGHCLIINNVNFCRESGLRTRTGSNIDCEKLRRRFSSLHFMVEVKGDLTAKKMVLALLELARQDHGALDCCVVVILSHGCQASHLQFPGAVYGTDGCPVSVEKIVNIFNGTSCPSLGGKPKLFFIQACGGEQKDHGFEVASTSPEDESPGSNPEPDATPFQEGLRTFDQLDAISSLPTPSDIFVSYSTFPGFVSWRDPKSGSWYVETLDDIFEQWAHSEDLQSLLLRVANAVSVKGIYKQMPGCFQFLRKKLFFKTSASRA |  | Decreased | higher IC50
F406W (protein) GFGDVGALESLRGNADLAYILSMEPCGHCLIINNVNFCRESGLRTRTGSNIDCEKLRRRFSSLHFMVEVKGDLTAKKMVLALLELARQDHGALDCCVVVILSHGCQASHLQFPGAVYGTDGCPVSVEKIVNIFNGTSCPSLGGKPKLFFIQACGGEQKDHGFEVASTSPEDESPGSNPEPDATPFQEGLRTFDQLDAISSLPTPSDIFVSYSTFPGFVSWRDPKSGSWYVETLDDIFEQWAHSEDLQSLLLRVANAVSVKGIYKQMPGCFNWLRKKLFFKTSASRA |  | Decreased | higher IC50
D330A-S196A (protein) GFGDVGALESLRGNADLAYILSMEPCGHCLIINNVNFCRESGLRTRTGSNIDCEKLRRRFSALHFMVEVKGDLTAKKMVLALLELARQDHGALDCCVVVILSHGCQASHLQFPGAVYGTDGCPVSVEKIVNIFNGTSCPSLGGKPKLFFIQACGGEQKDHGFEVASTSPEDESPGSNPEPDATPFQEGLRTFDQLAAISSLPTPSDIFVSYSTFPGFVSWRDPKSGSWYVETLDDIFEQWAHSEDLQSLLLRVANAVSVKGIYKQMPGCFNFLRKKLFFKTSASRA |  | Decreased | higher IC50
N405Q-S196D (protein) GFGDVGALESLRGNADLAYILSMEPCGHCLIINNVNFCRESGLRTRTGSNIDCEKLRRRFSDLHFMVEVKGDLTAKKMVLALLELARQDHGALDCCVVVILSHGCQASHLQFPGAVYGTDGCPVSVEKIVNIFNGTSCPSLGGKPKLFFIQACGGEQKDHGFEVASTSPEDESPGSNPEPDATPFQEGLRTFDQLDAISSLPTPSDIFVSYSTFPGFVSWRDPKSGSWYVETLDDIFEQWAHSEDLQSLLLRVANAVSVKGIYKQMPGCFQFLRKKLFFKTSASRA |  | Decreased | higher IC50
F404Y (protein) GFGDVGALESLRGNADLAYILSMEPCGHCLIINNVNFCRESGLRTRTGSNIDCEKLRRRFSSLHFMVEVKGDLTAKKMVLALLELARQDHGALDCCVVVILSHGCQASHLQFPGAVYGTDGCPVSVEKIVNIFNGTSCPSLGGKPKLFFIQACGGEQKDHGFEVASTSPEDESPGSNPEPDATPFQEGLRTFDQLDAISSLPTPSDIFVSYSTFPGFVSWRDPKSGSWYVETLDDIFEQWAHSEDLQSLLLRVANAVSVKGIYKQMPGCYNFLRKKLFFKTSASRA |  | Decreased | higher IC50
N405Q-S144A (protein) GFGDVGALEALRGNADLAYILSMEPCGHCLIINNVNFCRESGLRTRTGSNIDCEKLRRRFSSLHFMVEVKGDLTAKKMVLALLELARQDHGALDCCVVVILSHGCQASHLQFPGAVYGTDGCPVSVEKIVNIFNGTSCPSLGGKPKLFFIQACGGEQKDHGFEVASTSPEDESPGSNPEPDATPFQEGLRTFDQLDAISSLPTPSDIFVSYSTFPGFVSWRDPKSGSWYVETLDDIFEQWAHSEDLQSLLLRVANAVSVKGIYKQMPGCFQFLRKKLFFKTSASRA |  | Decreased | higher IC50
